In the domain aggregation screens of Martell et al. (2025):

Assay: soluble fraction after stress (log2 fold change); higher = more stays soluble; pooled small domains, quantitative proteomics
Details: stress: pH 4
In short: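 Custom libraries of small protein domains were pooled and exposed to pH 4. High-throughput quantitative proteomics then measured the log2 fold change in the amount of each domain still soluble, with higher values meaning more stayed soluble. This soluble-fraction fold change stands for aggregation propensity.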

First: HMKPEQIELTFSGTTAMRLDKFLAENQPGLSRAKLQAIISSGSVEVNGKVITKQAFKLDPGDLVKALIPE
Second: HMKPGWEDIFRMNQIQLEDAVRTVNRDDTLAPTKKAYLIQNLLASRWIVGNQLQAQKDKTTE
The “soluble fraction (log2)” value of the first is higher: at least 0.43 for the first, -0.335 for the second.

First: HMKPGYVIQVNGTVTKIQSGLVYVKTPAAQYTLMRKYAPADAAVGDRVSLWINEEGMVIDVHGK
Second: HMKPKDILLPNFTNLTLDEAKAKAEEVKLNLNVSEEKYDVQIEEGKIISQDPKYQPNYTVKEGSTVNVVVS
The “soluble fraction (log2)” value of the first is lower: -0.671 for the first, 0.0508 for the second.

Compared with “HMKPLIIPLELMQRLSSDKQLEAGFNRFSKSKQHEFAAYIAAAKRVETKVKRLEKIIPLILSGEGLNDR”, “HMKPLRPVHLEIQTHRLSPVGILRSSFRQAGKVMHSNHGRITGLNLEQLKLIQAAFAGEALPK” is lower in “soluble fraction (log2)” value: 0.333 for the first, 0.0473 for the second.

Going from “HMKPQIRRHEKITALVREHGFMSVEQLARELEVTPQTIRRDIGILSAENVLRRYHGGAALGD” to “HMKPSNLTSDERTQLLAQLKTAMGSDQYNQLRRQVGEEKLLEYVLDNVPGIQEEILGNRAVQENIDLH”, the “soluble fraction (log2)” value falls from 0.148 to -0.266.

Compared with “HMKPSTVSVPDVSGDKLSTAKMIIRKSGLKVGDVQKIEDDNVGAGKVVRTNPSAGSKKREGSSVDIFVASA”, “HMKPTVKGHFTRKESNVGGYADVRGWGVAGTPSMMANQSKDTRRFSTLIVPGRSVNVHPSPTKEAIIWWQS” is lower in “soluble fraction (log2)” value: 0.111 for the first, -0.138 for the second.

First: HMKPTVKKLLAALPELRSGQPLHLSVATRKLRDAGLLGKNASSPTLFRNYVAQFELIPENQPNAVRYR
Second: HMKPVSEMDNMEWVREQYFQNMIYEIGEWVKDKKTGIVGEIVKRGTNYVTIVQEDFSLHKIWLEDLETTE
The “soluble fraction (log2)” value of the first is higher: 0.268 for the first, -0.368 for the second.

First: HMKQDYYSILGVMRDASQEEIKRAYLDAAQRLHPDRNTSAGDTEMFLDVQQAYEVLSNPKRRAQYDATLP
Second: HMKQEFEMGLPNGVGEQMLAHAIEKFDVKLEHSEFGPKLIGTYEELEKAKVFLYEAIEARLNQLE
The “soluble fraction (log2)” value of the first is higher: 0.169 for the first, -0.875 for the second.

Going from “HMKQISNTDELETMVKKIIDDNEEQVNKYRGGNEKLFGWFVGQAMKNTGGTANPKVVNEILSKLLK” to “HMKQLLHLVIGGELKDVRGIEFEDLSKIDFVGAFPSYKAAYDAWKNAAQRTVDNAEMRYFILHAHR”, the “soluble fraction (log2)” value falls from at least 0.43 to -1.37.

“HMKQLRVLGIVKAGSILKNSDGSIEFVIEDSGKSLLVKYKGVIPDIFKDGVEAVVEGDLRGSVFNADKLF” and “HMKQMNETQQKAFEIYLDSATFETDYKPISEEQLAAKLDALGLKGSSSSINRWKKDFNWAQALQNKVTLAM” are within 0.2 log units of each other in “soluble fraction (log2)” value: -0.2 for the first, -0.227 for the second.

Compared with “HMKQQNFADLAGRFVFNADNEVVFNFGKHKNVPVATVLKNEPGYYGWMMGGDFPLFTKKILKQIKEA”, “HMKQTFGAMLAALRKEKGMTQLELAEQMGVTDKAVSKWERDLSFPDVTSLPRLAEILEVSVDELMQ” is higher in “soluble fraction (log2)” value: -0.952 for the first, -0.724 for the second.

Compared with “HMKQVNVVSVIGQSEANAKTTLTGLGLKVNVAYEEDTSKADGIVLKQSLEGGKTVNEGTTITITVNKIA”, “HMKQVSDTGAIDAAIREVMDANPDKVAEYRSGKDKLFGFFVGQIMRAMAGKAAPVVVNDRLKALLD” is higher in “soluble fraction (log2)” value: -0.567 for the first, 0.32 for the second.

Compared with “HMKQVTVGGTINAGGARIYADSYGNGGGRQTFGSDPIYTVLQERNGYILTRWHKLSSGYTGWFKKSDVSA”, “HMKQYSFEISKADFKKISENFNFKIINEINDSLIISLNDKNINLDELLIFFVERKIKVRSIENI” is lower in “soluble fraction (log2)” value: -0.00968 for the first, -1.06 for the second.

Going from “HMKREELTQQTKQNLREAFWSLYIQKPIEKITVKEITDIAGYNRGTFYLYYKDTYDLLAKIE” to “HMKRLLLPGDLAGVRRHLLDRENSFHILRVLRLARGSTIEAMDDAGNRFSATLAGVKAGRALFDLAAKI”, the “soluble fraction (log2)” value rises from -0.646 to -0.245.

“HMKRLPAQMGGGDGVLRVPGLNNFVYVTIADKTLPAFNNRVPPKKGLRIWVGYSPEEPNLFQVLSTRTD” and “HMKRLPMRKIRDVLRLSADGLSTRKIGVSLTIGRTTVQAYLDRAAEVDLSWPLPPEMSDTDLERLIYPR” are within 0.2 log units of each other in “soluble fraction (log2)” value: 0.0233 for the first, -0.119 for the second.

Going from “HMKRNLVSVLDHIVGIGPKRRQSLRTHFGSLEKIKEASVEELAAAPGMNRTSAEAVRHFFDAQQELRGK” to “HMKRRSVIVSVVRAQVRQSADEAAAVVFEAEKNVSLDYLETMPGGWVKVRHRDGQTGFVRVNQIWG”, the “soluble fraction (log2)” value falls from 0.207 to -0.79.

Compared with “HMKRSFGYIRLLPSKRYQASYIGPDSQRHAAPETFTRKMDAEGWLSAERRLIEWDQWTSPEQRAAQARLD”, “HMKRTRLEEAMDWLREQLNDGPVAYATLKDEAPKAEITLSTLRAAGEALRVDKQKKGVQWGGWTWSLPR” is higher in “soluble fraction (log2)” value: 0.127 for the first, 0.404 for the second.

“HMKRVTRQRTEILRVIDESERPLGPQEILQAGREAIPSLSIATIYRTLRDLLAEELIKTVALPGDSPRYES” and “HMKSARDDILSALDKAGEPLSMKDIAELSGRKLSTLRAQMTRLVAEGAVQATAAAHSPDRKYRK” are within 0.2 log units of each other in “soluble fraction (log2)” value: -0.0601 for the first, -0.133 for the second.

“HMKSARQIAILEIIAEKSIETQEDLADALRLRGFQVTQATVSRDIKELRLVKALAPDGTYRYATAEK” and “HMKSEIRKKNSQIILDAAEHEFSVHGYRGTSVQMIADRSGLPKANLHYYYKSKSALYGAVLDRIL” are within 0.2 log units of each other in “soluble fraction (log2)” value: 0.264 for the first, 0.109 for the second.

Going from “HMKSERHALILSLIEKKNVETQEDLAELLKERGVAVTQATVSRDIKELRLIKVLSETGGYKYATVDKAE” to “HMKSIETVAELVAELKKLNPNAKISNIDGTYTLEEDINTITLPKDFKYDNNLGINNKIDDFTPYISLDVKA”, the “soluble fraction (log2)” value falls from 0.109 to -0.132.

Going from “HMKSIRIPFILTEGPNSQKITIDIDSDEEFRIGDVFDEDDKLWSINQILISGDRKAKMAIASEVTSISALR” to “HMKSKYLIKIEGDFDEKDLYKYLINVSIVNHTKNNGFTEVEFYNDNYSLQQNFLKSMLNDGIIITEFKKVE”, the “soluble fraction (log2)” value rises from -0.797 to -0.558.

“HMKSLHSEVTDRIRQLIVESHLQPGQRVPELEISRDLGVSRTPIREALKVLAAEGLVELLPLRGAMVK” and “HMKSLLTARQLEVFEIARNKGYWTTPRKISLVELSKLLDISKSTLSVLLHSIEGKVMEEFYEEIRQ” are within 0.2 log units of each other in “soluble fraction (log2)” value: -0.104 for the first, 0.0209 for the second.

First: HMKSNIIPLSLKKPQRLDIFLTNYFVDLSRTQIKKMITDGNIKVNDLIAKPSLKLIGDEIIFYTLPK
Second: HMKSNNPLDHVRVKQRGASWAYYFEKAKVDGKRRRGEGGGYATEQDARMAGVEAYNAYIGGGAK
The “soluble fraction (log2)” value of the first is lower: -0.698 for the first, 0.109 for the second.

Compared with “HMKSPVKLILRGSIYHIKISAVVNGQRIFVRESSHTTDKREAEQYANKRFAQLVEETEFRTN”, “HMKSQSIFNVKKGDTLSHIAVHVLKKNKQKVTPEAINKMVSNIAFRNKIKNPDLIFPGQKLVLEY” is higher in “soluble fraction (log2)” value: -0.907 for the first, -0.0458 for the second.

Compared with “HMKSQVVAYSDFVKAVNQKQINEVQIQGDKIRAINKAGEEITVTWLQNDQKLMDDLLDNNVKTIFLE”, “HMKSSYSGNFKQNVVEYMHNNHLSATETANHFKLGGGSVVLRWERIYYEEGPQALYEERRGR” is higher in “soluble fraction (log2)” value: -0.282 for the first, 0.144 for the second.

Going from “HMKSYAQIAEILSGQQPNTSRKEGSNLAVHADWIDALIAKYGTALRPEEANEVVKKEIGIVFSHVLEN” to “HMKSYQKITPATEGNYLTTYREGDDIKTYEGVKAMYTPADFDASSVREITPEEHQSYQKAKEQALQEETEQ”, the “soluble fraction (log2)” value rises from -1 to 0.0912.
